Experiments:
[1] = molecular target: T1, human GABRA2 (SEQ ID NO: 21) (human, UniProt P47869 29-251); test: Biacore SPR, antibody immobilized on CM5 chip, GABRA2 as analyte, single-dose kinetics
T1 construct: The Biacore method says only 'Diluted GABRA2'; I took it to be the same antigen; also called GABRA2 protein; human GABRA2 antigen
T1 sequence: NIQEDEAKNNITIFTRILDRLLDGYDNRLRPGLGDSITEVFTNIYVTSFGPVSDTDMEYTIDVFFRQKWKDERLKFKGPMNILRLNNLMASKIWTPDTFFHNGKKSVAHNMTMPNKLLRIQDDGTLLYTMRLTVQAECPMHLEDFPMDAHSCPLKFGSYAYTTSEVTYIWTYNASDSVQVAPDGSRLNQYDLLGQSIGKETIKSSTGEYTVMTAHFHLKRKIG
Protocol: (§1) Biacore analysis—Antibody was immobilized onto a CM5 sensor chip (Cat No. BR-1005-30) under 25° C. while HBS-EP was used as the running buffer. The sensor chip surface of flow cells 1 and 2 were activated by freshly mixed 50 mmol/1 N-Hydroxysuccinimide (NHS) and 200 mmol/I 1-ethyl-3-(3-dimethylaminopropyl) carbodiimide hydrochloride (EDC) for 200s ([…]). Afterwards, the antibody diluted in 10 mml/l NaAC (pH 4.5) was injected into flow cell 2 to achieve conjugation of 300 Response Unit respectively, while flow cell 1 was set as blank. After the amine coupling reaction, the remaining active coupling sites on chip surface were blocked with 200s injection of 1 mol/l ethanolamine hydrochloride. […] Diluted GABRA2 was injected over the surface as association phase, followed by injecting running buffer as dissociation phase. Data was processed using the Biacore 8K Evaluation software version 1.1. Flow cell 1 and blank injection of buffer in each cycle were used as double reference for Response Unit subtraction.

[2] = molecular target: T1, human GABRA2 (SEQ ID NO: 21); test: Biacore SPR, antibody immobilized on CM5 chip, GABRA2 as analyte, single-cycle kinetics
Protocol: as §1

Kd [1]: 0.251 nM
koff [1]: 1.58e-05 s⁻¹
kon [1]: 62800 M⁻¹ s⁻¹
Kd [2]: 0.388 nM
koff [2]: 5.42e-05 s⁻¹
kon [2]: 140000 M⁻¹ s⁻¹
B1: antibody U6882DH130_13, purified from hybridoma 10C5B9 (antibody, V domains shown)
VH: EVQLQQSGAELVKPGASVKLSCTASGFNIKDTYMYWVKQRPEQGLEWIGRIDPANGNTKYDPKFQGKATITADTSSNTAYLQLSSLTSEDTAVYYCASNYYGSFDYWGQGTTLTVSS
VL: DIQMTQTTSSLSASLGDRVTISCRASQDISNYLNWYQQKPDGTVKLLIYYTSRLHSGVPSRFSGSGSGTDYSLTISNLEQEDIATYFCQQGNTLPPTFGGGTKLEIK
notes: also called U6882DH130_13 Antibody; Antibody from clone10C5B9

From US20210163591A1 (TEL HASHOMER MEDICAL RESEARCH INFRASTRUCTURE AND SERVICES, published 2021)
